{
  "source": "patent US7419780B2",
  "about": "“Methods and assays for screening protein targets” (The Trustees of Columbia University in the City of New York, priority 2000, dated 2008)",
  "origin": "cited, not measured here",
  "molecules": {"B1": {"name": "E. cloacae P99 wt: wild-type E. cloacae P99 cephase (protein, UniProt P05364 21-381, looked up)", "Beta-lactamase": "TPVSEKQLAEVVANTITPLMKAQSVPGMAVAVIYQGKPHYYTFGKADIAANKPVTPQTLFELGSISKTFTGVLGGDAIARGEISLDDAVTRYWPQLTGKQWQGIRMLDLATYTAGGLPLQVPDEVTDNASLLRFYQNWQPQWKPGTTRLYANASIGLFGALAVKPSGMPYEQAMTTRVLKPLKLDHTWINVPKAEEAHYAWGYRDGKAVRVSPGMLDAQAYGVKTNVQDMANWVMANMAPENVADASLKQGIALAQSRYWRIGSMYQGLGWEMLNWPVEANTVVEGSDSKVALAPLPVAEVNPPAPPVKASWVHKTGSTGGFGSYVAFIPEKQIGIVMLANTSYPNPARVEAAYHILEALQ"}},
  "conditions": "substrate nitrocefin",
  "data": [
    {"molecule": "B1", "values": [
      {"measurement": "% WT (percentage of wild-type kcat/Km as calculated in that experiment)", "value": 100, "unit": "%"},
      {"measurement": "Km", "value": "25 ± 1", "unit": "µM"},
      {"measurement": "kcat", "value": "780 ± 30", "unit": "s⁻¹"}
    ]}
  ]
}
